Test [1] addresses cleaved, mature CDTb (from limited trypsinization of proCDTb) (Clostridioides difficile). Description: SEC; CDTb oligomerization assay: 500 μg proCDTb at 1 mg/mL, untreated or with trypsin 1:20 (wt/wt) at 37°C for 20 min, with buffer or 2-fold molar excess of Fab; Superdex 200 Increase 10/300 GL in 20 mM Tris pH 8, 100 mM NaCl, 6 mM CaCl2.
Test [2] shares this target. Description: negative-stain electron microscopy.

By stoichiometry N is commonly meant a count of units in the complex or per binding partner. “cleaved, mature CDTb (from limited trypsinization of proCDTb) (natural protein)” had a percent of cleaved CDTb oligomerized in test [1] of 5%. For the same substance, in test [2], the stoichiometry N turned out to be 14.

(Values after paper PMC10127577.)
